Experimental findings from publication PMC5377774 are described below.

For the data set, the target named is His827 (UniProt position 827, GQFLDHDLDST). Briefly: kinetics (stopped-flow UV-vis spectroscopy). Conditions: 25 °C (stated for the stopped-flow reactions in general; not restated for the pH profile); Citrate phosphate buffer pH 4-5.5; phosphate buffer pH 5.5-8; carbonate buffer pH 9 and 10. A concentration of 100 mM is given for the analogous bromide pH profile in the Fig. 7D caption.; Ferric high-spin resting enzyme reacting with H2O2 to form compound I; heme covalently linked.

“Peroxidasin 1, truncated construct hsPxd01-con4 (four Ig domains + peroxidase domain) (Homo sapiens)”: the pKa result is reported as “∼4.7”.
